# From publication PMC3485338
# pKd: −log10 of the molar value.
# Assays:
# [1] = molecular target: T1, Spo0A-DBD-6xHis (Clostridium difficile 630Δerm) (UniProt I6ZTX1); assay: EMSA; details: EMSA: 10 mM Tris-HCl pH 7.6, 1 mM EDTA, 50 mM NaCl, 1 mM DTT, 5% glycerol, 200 ug/mL BSA, 200 cpm/uL 32P-DNA, 20 min at 30 C; 8% native PAGE in 1x TAE
# T1 sequence: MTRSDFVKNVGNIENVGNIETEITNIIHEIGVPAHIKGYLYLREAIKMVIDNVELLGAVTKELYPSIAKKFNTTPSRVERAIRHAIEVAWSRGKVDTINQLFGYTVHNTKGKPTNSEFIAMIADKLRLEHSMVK
# [2] = tested on: Spo0A-DBD-6xHis (Clostridium difficile 630Δerm); assay: EMSA; details: EMSA: 10 mM Tris-HCl pH 7.6, 1 mM EDTA, 50 mM NaCl, 1 mM DTT, 5% glycerol, 200 ug/mL BSA, 200 cpm/uL 32P-DNA, 20 min at 30 C; 8% native PAGE in 1x TAE
Substance,binding signal (fold lower affinity than PabrB) [2],also measured
AGGATTTTTAGTAGGATAATAGCTTTATTAAATATTTATAAAATGCTGTTATTTCGGTAGTTTCCAAGACATTACTGACTATAAGAACTAATTCTTACAATCAATAGTAAACAAAATGATTGACGATTATTGGAAACCTTGTTATGCTATGAAGGTAAGGATTTTGTCGAATAATGACGAAGAAAAATATAATTTAAACAAATAAGTATCTCTTGGGAG (double strand) [PabrB],–,pKd [1]: > 7.30
CAATTCTGTATTCCATTTATGTATCCCTCCATAACGGTTGCTTCAATAGATCATAATTCGCCAATGACACAAAAAATCCTTTTTATTTTTCGATCTTGGCAGATTTTAATTTTAATTCAAGATATACGCGGGAATCCTTTGAATATTTGTATTTTGGATTTGTCCTGCCGTACTCCTTTGATGTATAAGAGACATCATAATGCTGTTCAAATGATCTAATGAGCTGTTCAATTTCTTCTTGTTTTCCAGCTAGCCTTACCTGTGCCACTTCGTATCCTCCGCTTTCA (double strand) [PcitG],–,binding [1]: no binding
PabrB,–,pKd [2]: > 7.30
PabrB C4A,10,–
PabrB G2A,10,–
PabrB G5A,10,–
